Laboratory results: patent US10087443B2, “Compositions and methods for modulating neuronal excitability and motor behavior” (ICAHN SCHOOL OF MEDICINE AT MOUNT SINAI, priority 2013, dated 2018)

Tests used:
miR-128-2−/− mice = assay: Survival of miR-128-2-/- mice under anticonvulsant treatment (Kaplan-Meier survival curves); type: in vivo; settings: sodium valproate 0.26% w/v in drinking water, oral, n=11
[1] = system: Dravet-syndrome mice (Scn1a or Gabrg2 deficient mice); assay: Ectopic miR-128 overexpression in Dravet-syndrome mouse models (Scn1a or Gabrg2 deficient mice); type: in vivo; settings: supplied into neurons of the hippocampus or thalamus; Dravet-like syndrome mice
Excerpt: The inventors of the instant disclosure ectopically overexpress miR-128 in mouse models of severe human generalized childhood epilepsy such as the Dravet-syndrome (Scn1a or Gabrg2 deficient mice) to establish the efficacy of miR-128 in averting seizures in these mice. Mice with a loss of Scna1 and Gabrg2 display spontaneous seizures and ataxia beginning in the fourth postnatal week followed by premature death from seizure-related cause. Applicants test the effects of miR-128 overexpression on seizure development and survival in three to four week old Dravet-syndrome mice. The ability of genetic miR-128 overexpression in postnatal forebrain neurons to protect mice against spontaneous seizure development is also tested. Secondly, Applicants test the seizure-suppressing ability of oligonucleotide or AAV-based miR-128 overexpression in different brain regions (striatum, temporal cortex, hippocampus, mediodorsal thalamus) to determine whether there are specific locations that can short-circuit brain-wide seizures due to local miR-128 overexpression. Ectopically supplied miR-128 into the neurons of the hippocam pus or thalamus protects mice suffering from Dravet-like syndrome against spontaneous recurrent seizures and premature death.

[2] = system: primary striatal neuron cultures; assay: Gene expression (TaqMan qRT-PCR) in BDNF-treated primary striatal neuron cultures; type: cell-based, mouse; settings: 0.05 ng/ul BDNF, day 10 in vitro; 0, 2, 6 and 24 hours
Description: Primary striatal neuron cultures obtained from E18 mouse brain were treated on day 10 in vitro with 0.05 ng/ul brain-derived neurotrophic factor (BDNF) in water. RNA from cultures was prepared at 0, 2, 6 and 24 hours after stimulation and gene expression change were analyzed using the Tagman qRT-PCR assay. […] Data are shown as mean, error bars represent s.e.m., p-value was determined by 2-way ANOVA, FosB treatment 0.0014, time <0.0001. 124a treatment 0.1091, time 0.0861, Arpp21 treatment 0.0064, time 0.0190. miR-128-2 treatment 0.0160, time 0.2097.
Relative expression levels of mature miRNAs and mRNAs were measured by TaqMan assays using total extracted RNA from brain samples, according to manufacturer's protocol (Life Technologies, Carlsbad, Calif.). Purified RNA samples were assayed by qRT-PCR for relative gene expression using pre-designed TaqMan gene expression assays from Applied Biosystems (ABI) as recommended by the manufacture. The following pre-designed TaqMan gene expression assays from Applied Biosystems (ABI) were used: miR-128 (Assay ID 002216), sno135 (Assay ID 001230), miR-124a (Assay ID 001182), Fosb Mm00500401_m1, Fosl2 Mm00484442_m1, Arc Mm00479619_g1, JunB Mm04243546_s1, Darpp-32 Mm00454892_m1, Btg2 Mm00476162_m1, Gadd45g Mm01352550_g1, Dusp1 Mm00457274_g1, Nr4a1 Mm01300401_m1, Jun Mm00495062_s1, Actb Mm00607939_s1, Arpp-21 Mm00473630_m1 (exon spanning probe detects exons that are common to all Arpp-21 isoforms), Arpp21 Mm00473645_m1 (exon spanning probe that specifically detects the long TARPP-isoform of Arpp-21). Cycle counts for miRNA quantification were normalized to snoRNA135 or miR-124a as indicated, and cycle counts for mRNA quantification were normalized to Actb or Gapdh. […] Calculation of standard deviation (SDΔCt=(SDtarget2+SDref2)1/2) and error bars (RQ1=2^(−(ΔΔCt+SDΔΔCt)), and RQ2=2^(−(ΔΔCt−SDΔΔCt))) was performed according to ABI technical literature Part Number 4371095 Rev B.

Molecule: CCCC(CCC)C(=O)O [valproic acid]
- lethal impact of miR-128 deficiency (lifespan) (miR-128-2−/− mice): prevented

Molecule: miR-128: microRNA, UCACAGUGAACCGGUCUCUUU (SEQ ID NO: 1) (listed as RNA, chemistry not fully specified)
- spontaneous recurrent seizures and premature death [1]: protects

B1: BDNF: brain-derived neurotrophic factor, inducer of miR-128 expression (protein, UniProt P23560 19-247, looked up)
Neurotrophic factor BDNF …: APMKEANIRGQGGLAYPGVRTHGTLESVNGPKAGSRGLTSLADTFEHVIEELLDEDQKVRPNEENNKDADLYTSRVMLSSQVPLEPPLLFLLEEYKNYLDAANMSMRVRRHSDPARRGELSVCDSISEWVTAADKKTAVDMSGGTVTVLEKVPVSKGQLKQYFYETKCNPMGYTKEGCRGIDKRHWNSQCRTTQSYVRALTMDSKKRIGWRFIRIDTSCVCTLTIKRGR
- expression of immediate early gene FosB [2]: strong but transient inducer
- expression of miR-128 [2]: stable increase
- expression of miR-128 host gene Arpp21 [2]: stable increase
- expression of neuron-specific miRNA miR-124a [2]: no effect
